T1: human BMP6 (Bone Morphogenetic Protein 6) (human, UniProt P22004 382-513, limits assumed)
T1 construct: also called rhBMP6; recombinant human BMP6
T1 sequence (looked up): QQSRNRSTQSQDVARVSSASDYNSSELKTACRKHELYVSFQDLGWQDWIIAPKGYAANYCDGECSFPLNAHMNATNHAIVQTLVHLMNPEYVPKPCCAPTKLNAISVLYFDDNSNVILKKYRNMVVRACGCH

T2: human BMP5 (Bone Morphogenetic Protein 5) (human, UniProt P22003 317-454, limits assumed)
T2 sequence (looked up): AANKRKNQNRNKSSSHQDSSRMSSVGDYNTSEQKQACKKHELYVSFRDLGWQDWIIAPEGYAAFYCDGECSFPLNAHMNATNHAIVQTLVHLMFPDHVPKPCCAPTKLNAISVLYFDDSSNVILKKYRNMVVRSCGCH

T3: human BMP7 (Bone Morphogenetic Protein 7) (human, UniProt P18075 293-431)
T3 sequence (looked up): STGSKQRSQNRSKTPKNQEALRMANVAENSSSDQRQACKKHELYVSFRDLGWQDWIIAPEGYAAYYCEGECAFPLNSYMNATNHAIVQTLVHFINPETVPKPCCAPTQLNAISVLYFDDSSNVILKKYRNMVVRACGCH

T4: hBaffR (human, UniProt Q96RJ3)
T4 construct: Unrelated control antigen no
T4 sequence (control antigen, looked up): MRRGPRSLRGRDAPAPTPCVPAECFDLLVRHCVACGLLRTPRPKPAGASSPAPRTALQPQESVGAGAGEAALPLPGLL

T5: Mouse BMP6 (mouse, UniProt P20722)
T5 construct: Antigen no
T5 sequence (ligand, looked up): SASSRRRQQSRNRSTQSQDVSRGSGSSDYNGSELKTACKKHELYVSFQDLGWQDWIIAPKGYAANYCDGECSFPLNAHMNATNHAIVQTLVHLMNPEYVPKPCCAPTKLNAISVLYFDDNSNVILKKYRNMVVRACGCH


Columns and labels:
[1] = biological target: T1, human BMP6 (Bone Morphogenetic Protein …); test: method not stated (Table 8, KD(nM) BMP6)
[2] = biological target: T1, human BMP6 (Bone Morphogenetic Protein …); test: cell-based or functional assay
[3] = biological target: T1, human BMP6 (Bone Morphogenetic Protein …); test: cell-based or functional assay; remark: listed apart in the source
[4] = biological target: T2, human BMP5 (Bone Morphogenetic Protein …); test: cell-based or functional assay
[5] = biological target: T1, human BMP6 (Bone Morphogenetic Protein …); test: cell-based or functional assay; remark: listed apart in the source
[6] = biological target: T3, human BMP7 (Bone Morphogenetic Protein …); test: cell-based or functional assay
[7] = biological target: human BMP2 (Bone Morphogenetic Protein 2) (human, UniProt P12643 283-396); test: cell-based or functional assay
Chain of human BMP2 (Bone Morphogenetic Protein 2) (P12643 283-396 limits assumed): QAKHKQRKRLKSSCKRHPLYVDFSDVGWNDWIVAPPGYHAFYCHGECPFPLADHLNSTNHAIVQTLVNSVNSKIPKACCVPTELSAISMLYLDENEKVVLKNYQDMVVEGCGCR

hBaffR = biological target: T4, hBaffR; test: ELISA binding assay, fluorescence signal intensity (anti-Fab-AP detection); antibody concentration not given
[8] = biological target: T2, human BMP5 (Bone Morphogenetic Protein …); test: as above
BSA = biological target: T6, BSA (bovine, UniProt P02769); test: as above
T6 construct: Unrelated control antigen no
T6 sequence (P02769 25-607 limits assumed): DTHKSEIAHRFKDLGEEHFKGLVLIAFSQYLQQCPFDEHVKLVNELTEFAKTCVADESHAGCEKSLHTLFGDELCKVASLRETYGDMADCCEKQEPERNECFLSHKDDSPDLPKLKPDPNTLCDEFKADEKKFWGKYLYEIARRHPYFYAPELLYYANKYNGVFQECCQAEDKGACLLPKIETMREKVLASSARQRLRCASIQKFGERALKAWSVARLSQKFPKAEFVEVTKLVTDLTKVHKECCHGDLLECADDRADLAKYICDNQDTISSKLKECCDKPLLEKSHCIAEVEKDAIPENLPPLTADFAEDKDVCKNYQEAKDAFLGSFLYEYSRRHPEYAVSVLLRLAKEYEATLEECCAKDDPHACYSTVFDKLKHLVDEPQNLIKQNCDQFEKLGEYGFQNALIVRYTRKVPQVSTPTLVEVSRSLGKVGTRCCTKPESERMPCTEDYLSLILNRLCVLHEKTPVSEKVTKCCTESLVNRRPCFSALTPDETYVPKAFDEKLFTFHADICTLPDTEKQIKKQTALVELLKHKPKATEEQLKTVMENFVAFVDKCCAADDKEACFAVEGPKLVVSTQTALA

[9] = biological target: human BMP7 (Bone Morphogenetic Protein 7) (human) (UniProt P18075); test: ELISA binding assay
Mouse BMP6 = biological target: T5, Mouse BMP6; test: ELISA binding assay, fluorescence signal intensity (anti-Fab-AP detection); one bar per antigen, antibody concentration not given
[10] = biological target: human BMP7 (Bone Morphogenetic Protein 7) (human) (UniProt P18075); test: cell-based or functional assay

| Kd [1] [nM] | IC50(ug/ml) BMP6 reporter [2] [µg/mL] | IC50 (read off the curve), BMP reporter gene assay [panel Ab5] [3] [nM] | selectivity window against BMP6, BMP reporter gene assay [4] [fold] | IC50, BMP reporter (BRE-luc) activity in Hep3B [5] [nM] | selectivity window against BMP6, BMP reporter gene assay [6] [fold] | selectivity window against BMP6, BMP reporter gene assay [7] [fold] | IC50 (read off the curve), BMP reporter gene assay [panel Ab7] [3] [nM] | binding result (hBaffR) | binding result [8] | binding result (BSA) | selectivity, affinity to human BMP6 over affinity to human BMP7 [9] [fold] | binding result (Mouse BMP6) | selectivity window against BMP6, BMP reporter gene assay [10] [fold] | IC50 (read off the curve), BMP reporter gene assay [panel Ab6] [3] [nM] | Binder |
| --- | --- | --- | --- | --- | --- | --- | --- | --- | --- | --- | --- | --- | --- | --- | --- |
| 0.1 | 0.06 | ~0.5 | ≥ 500 | 0.4 | ≥ 500 | ≥ 500 |  |  |  |  |  |  |  |  | Antibody 5 (antibody, human IgG1, lambda, V domains shown, also called Ab 5) VH: QVQLVESGGGLVKPGGSLRLSCAASGFTFSSYVVHWVRQAPGKGLEWVGRIKRESSSYTTMYAAPVKGRFTISRDDSKNTLYLQMNSLKTEDTAVYYCARVERSKSGFDNWGQGTLVTVSS VL: QSVLTQPPSVSGAPGQRVTISCTGSSSNIGAGYSVHWYQQLPGTAPKLLIYGQSERPSGVPDRFSGSKSGTSASLAITGLQAEDEADYYCQSWDSSQTLVVFGGGTKLTVLG |
| 0.1 | 0.07 |  | ≥ 500 | 0.4 |  | ≥ 500 | ~0.5 | no binding | no binding | no binding | > 500 | binds | > 500 |  | Antibody 7 (antibody, human IgG1, lambda, V domains shown, also called Ab 7; Ab7) VH: QVQLVESGGGLVKPGGSLRLSCAASGFTFSSYVVHWVRQAPGKGLEWVGRIRLETHGYAAEYAASVKGRFTISRDDSKNTLYLQMNSLKTEDTAVYYCARVERSKSGFDNWGQGTLVTVSS VL: QSVLTQPPSVSGAPGQRVTISCTGSSSNIGAGYSVHWYQQLPGTAPKLLIYGQSERPSGVPDRFSGSKSGTSASLAITGLQAEDEADYYCQSWDSSQTLVVFGGGTKLTVLG |
| < 0.1 | 0.08 |  | ≥ 500 | 0.4 | ≥ 500 | ≥ 500 |  |  |  |  |  |  |  | ~0.5 | Antibody 6 (antibody, human IgG1, lambda, V domains shown, also called Ab 6) VH: QVQLVESGGGLVKPGGSLRLSCAASGFTFSSYVVHWVRQAPGKGLEWVGRTRHSDMGYATSYAAPVKGRFTISRDDSKNTLYLQMNSLKTEDTAVYYCARVERSKSGFDNWGQGTLVTVSS VL: QSVLTQPPSVSGAPGQRVTISCTGSSSNIGAGYSVHWYQQLPGTAPKLLIYGQSERPSGVPDRFSGSKSGTSASLAITGLQAEDEADYYCQSWDSSQTLVVFGGGTKLTVLG |
